Data on 1 molecule can be found in publication PMC4197010 (Journal of controlled release : official journal of the …, 2014).

The target of test [1] is T1, chimera leptin receptor (ObR-Fc) (UniProt P48356 22-839).
T1 sequence (looked up): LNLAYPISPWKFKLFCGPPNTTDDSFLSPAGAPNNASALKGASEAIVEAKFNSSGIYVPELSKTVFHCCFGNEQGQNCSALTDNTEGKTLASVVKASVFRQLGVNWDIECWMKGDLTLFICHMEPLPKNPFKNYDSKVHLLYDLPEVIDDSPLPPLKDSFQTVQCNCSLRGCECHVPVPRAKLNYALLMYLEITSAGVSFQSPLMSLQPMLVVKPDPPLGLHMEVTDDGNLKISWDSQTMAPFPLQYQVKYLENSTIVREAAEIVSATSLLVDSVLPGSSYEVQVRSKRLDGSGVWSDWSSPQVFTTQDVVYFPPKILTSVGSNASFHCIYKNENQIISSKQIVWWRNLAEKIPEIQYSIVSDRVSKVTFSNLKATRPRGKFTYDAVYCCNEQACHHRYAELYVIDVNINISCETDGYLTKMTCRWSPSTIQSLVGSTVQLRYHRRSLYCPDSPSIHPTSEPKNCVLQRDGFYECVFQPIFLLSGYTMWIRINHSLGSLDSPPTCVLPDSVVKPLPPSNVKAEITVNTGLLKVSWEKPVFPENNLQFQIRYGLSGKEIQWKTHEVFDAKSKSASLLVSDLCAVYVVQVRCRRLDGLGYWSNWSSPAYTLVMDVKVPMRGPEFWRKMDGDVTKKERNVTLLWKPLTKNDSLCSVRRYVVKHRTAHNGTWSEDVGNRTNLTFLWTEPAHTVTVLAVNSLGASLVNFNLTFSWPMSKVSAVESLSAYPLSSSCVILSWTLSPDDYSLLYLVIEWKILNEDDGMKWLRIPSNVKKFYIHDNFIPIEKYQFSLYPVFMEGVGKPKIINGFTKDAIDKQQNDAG
Nature of the test: SPR.

The target of test [2] is T1, chimera leptin receptor (ObR-Fc). Nature of the test: SPR. The source holds these as a separate data set. Background: SPR reads the build-up and loss of mass on a sensor chip optically.

Where two headings read alike, the source gives them in different places.

B1: Mouse recombinant leptin (ligand, UniProt P41160 22-167, looked up)
chain: VPIQKVQDDTKTLIKTIVTRINDISHTQSVSAKQRVTGLDFIPGLHPILSLSKMDQTLAVYQQVLTSLPSQNVLQIANDLENLRDLLHLLAFSKSCSLPQTSGLQKPESLDGVLEASLYSTEVVALSRLQGSLQDILQQLDVSPEC
By Kd is commonly meant the free concentration of one partner at which half of the binding sites on the other are occupied at equilibrium, for simple one-to-one binding. In the case of B1, the Kd in test [1] was 0.1 nM; in test [2], 0.337 nM.
